Molecular target: T1, mouse ICOS, full length, on cells (mouse, UniProt Q9WVS0 21-200)
T1 construct: also called CHO-mICOS; mouse ICOS+ CHO cells
T1 sequence: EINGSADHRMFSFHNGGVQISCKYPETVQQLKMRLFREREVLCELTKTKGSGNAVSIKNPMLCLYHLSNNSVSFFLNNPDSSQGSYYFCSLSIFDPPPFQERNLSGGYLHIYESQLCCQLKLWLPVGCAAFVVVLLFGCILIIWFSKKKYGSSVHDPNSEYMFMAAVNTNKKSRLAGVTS
Test: receptor availability assay, flow cytometry on mouse blood T cells after 2.5 mg/kg i.p.
Procedure: ICOS target engagement may also be assessed as measured by receptor availability assay, for example, as follows. Naive mice were i.p. injected with either the isotype control mIgG2a at 2.5 mg/kg or […] with a mouse IgG2a at 2.5 mg/kg. At various time-points post-injection, blood was collected in EDTA coated microtubes via submandibular draw.
Whole blood was Fc blocked using mouse TruStain (BioLegend) for 5 minutes on ice. Following incubation, 100 μl of 2× concentrated extracellular staining antibody mixture was added to each sample for 30 minutes at 4° C. Samples were spun down and fixed and permeabilized in Foxp3 staining buffer (eBioSciences) for 30 minutes at 4° C. Samples were then spun down and resuspended in intracellular antibody stain for 30 minutes at 4° C. Samples were spun down and resuspended in 0.1% PFA. Samples were analyzed on a BD LSRII Fortessa. Tregs were identified as live CD45+ CD3+ CD4+ FoxP3+. Teff cells were identified as live CD45+ CD3+ CD4+ FoxP3−. CD8+ cells were identified as live CD45+ CD3+ CD8+. Fluorescently labeled 37A10S713-mG2a (DyLight 650 conjugated) was used as the staining reagent for ICOS. Receptor availability at each time point was determined using the following formula: […]

B1: 37A10S713-mG2a (antibody, V domains shown)
VH: EVQLVESGGGLVQPGGSLRLSCAASGFTFSDYWMDWVRQAPGKGLVWVSNIDEDGSITEYSPFVKGRFTISRDNAKNTLYLQMNSLRAEDTAVYYCTRWGRFGFDSWGQGTLVTVSS
VL: DIVMTQSPDSLAVSLGERATINCKSSQSLLSGSFNYLTWYQQKPGQPPKLLIFYASTRHTGVPDRFSGSGSGTDFTLTISSLQAEDVAVYYCHHHYNAPPTFGPGTKVDIK
notes: 37A10S713 VH and VL with a mouse IgG2a; also called 37A10S713 with a mouse IgG2a; 37A10S713-mIgG2a
binding result: binds
